From PMC5217673, “The Shigella Virulence Factor IcsA Relieves N-WASP Autoinhibition by Displacing the Verprolin Homology/Cofilin/Acidic (VCA) Domain*” (The Journal of Biological Chemistry, 2016)
No end group written: not given here.

T1: IcsA passenger domain, IcsA(53–758), FLAG-tagged (Shigella flexneri, UniProt Q7BCK4 53-758)
T1 construct: IcsA (VirG) of Shigella flexneri, gene amplified from the virulence plasmid pWR100; Expressed as full-length IcsA from pETDuet-2 with IcsP; monomer by SEC-MALS; also called FLAG-IcsA; VirG; source: E. coli C43 (DE3), full-length IcsA co-expressed with IcsP; secreted passenger domain purified from medium (anti-FLAG M2 beads, SEC); not shown: FLAG, N-terminal, kept
T1 sequence: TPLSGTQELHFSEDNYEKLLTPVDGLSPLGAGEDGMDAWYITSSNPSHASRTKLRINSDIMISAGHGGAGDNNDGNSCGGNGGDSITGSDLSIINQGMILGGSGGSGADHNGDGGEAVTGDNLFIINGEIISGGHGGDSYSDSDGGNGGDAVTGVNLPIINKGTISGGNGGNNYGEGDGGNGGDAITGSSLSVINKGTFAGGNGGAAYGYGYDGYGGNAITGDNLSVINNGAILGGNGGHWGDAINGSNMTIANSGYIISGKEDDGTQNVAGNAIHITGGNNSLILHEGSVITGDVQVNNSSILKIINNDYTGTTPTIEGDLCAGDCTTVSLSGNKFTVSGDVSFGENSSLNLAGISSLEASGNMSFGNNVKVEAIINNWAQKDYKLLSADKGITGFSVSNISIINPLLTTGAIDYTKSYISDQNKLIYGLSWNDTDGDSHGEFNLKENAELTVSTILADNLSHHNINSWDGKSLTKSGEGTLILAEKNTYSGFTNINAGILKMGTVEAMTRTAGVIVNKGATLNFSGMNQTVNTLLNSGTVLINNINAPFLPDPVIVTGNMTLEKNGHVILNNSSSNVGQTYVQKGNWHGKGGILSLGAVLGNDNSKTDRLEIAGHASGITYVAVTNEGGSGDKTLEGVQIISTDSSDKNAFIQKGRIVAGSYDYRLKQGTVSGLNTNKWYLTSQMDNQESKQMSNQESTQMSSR

B1: GST-N-WASP extended GBD (residues 156–274) (domain or fragment)
chain: NLPMATVDIKNPEITTNRFYGPQVNNISHTKEKKKGKAKKKRLTKADIGTPSNFQHIGHVGWDPNTGFDLNNLDPELKNLFDMCGISEAQLKDRETSKVIYDFIEKTGGVEAVKNELRR
notes: Cloned in pGEX-6P-1 or pGEX-4T-2; also called GST-GBD; GBD alone; source: E. coli Rosetta(DE3), purified (glutathione-Sepharose, SEC)
B2: GST-N-WASP WH1 + GBD (residues 30–274) (domain or fragment)
chain: LFTFLGKKCVTMSSAVVQLYAADRNCMWSKKCSGVACLVKDNPQRSYFLRIFDIKDGKLLWEQELYNNFVYNSPRGYFHTFAGDTCQVALNFANEEEAKKFRKAVTDLLGRRQRKSEKRRDPPNGPNLPMATVDIKNPEITTNRFYGPQVNNISHTKEKKKGKAKKKRLTKADIGTPSNFQHIGHVGWDPNTGFDLNNLDPELKNLFDMCGISEAQLKDRETSKVIYDFIEKTGGVEAVKNELRR
notes: N-WASP from the WH1 domain to the end of the GBD, residues 30-274; also called GST-WH1 + GBD; extended N-WASP construct; source: E. coli Rosetta(DE3), purified (glutathione-Sepharose, SEC)

How the values were obtained:
Conditions in all cases: both partners purified
[1] = target: T1, IcsA passenger domain, IcsA(53–758), …; experiment: fluorescence polarisation; competition: preformed complex of GST-GBD or GST-WH1 + GBD (5 μM) and fluorescein-VCA peptide (0.1 nM), IcsA added at 0.01–16 μM, 25 °C; one-site equilibrium model
[2] = target: B1; experiment: fluorescence polarisation; direct binding: fluorescein-VCA peptide 2 nM, GST-GBD or GST-WH1 + GBD 0.1–200 μM, 25 °C, TBS, 1 mM DTT; one-site equilibrium model
[3] = target: B2; experiment: as above

Row | Binder | Kd [1] [µM] | Kd [2] [µM] | Kd [3] [µM]
1 | B1 | 0.32 |  | 
2 | fluorescein-APTSGIVGALMEVMQKRSKA (also called labeled peptide; source: synthetic peptide (Genscript)) [Fluorescein-labelled N-WASP VCA peptide (residues 462–481)] |  | 28.8 | 52.4
3 | B2 | 0.05 |  | 
